Measurements: patent US20050260565A1 (ICOS, published 2005)

T1: FLAG-tagged 88C receptor (human, UniProt P51681 1-352)
T1 sequence: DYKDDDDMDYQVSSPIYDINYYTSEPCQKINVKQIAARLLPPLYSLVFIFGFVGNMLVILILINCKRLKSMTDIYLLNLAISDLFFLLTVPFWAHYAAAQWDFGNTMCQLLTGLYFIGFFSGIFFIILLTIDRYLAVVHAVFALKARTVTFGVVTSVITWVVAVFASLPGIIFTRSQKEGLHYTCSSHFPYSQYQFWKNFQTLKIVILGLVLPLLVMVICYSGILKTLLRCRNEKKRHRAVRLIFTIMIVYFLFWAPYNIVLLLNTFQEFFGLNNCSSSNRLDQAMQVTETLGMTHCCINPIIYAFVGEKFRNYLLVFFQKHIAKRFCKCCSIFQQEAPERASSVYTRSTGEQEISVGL


Assays:
[1] = molecular target: T1, FLAG-tagged 88C receptor; experiment: cell-based or functional assay
[2] = molecular target: T1, FLAG-tagged 88C receptor; experiment: competition of the unlabeled ligand with 1.5 nM 125I-MIP-1β on HEK-293 cells expressing FLAG-tagged 88C
Excerpt: (§1) Another assay for receptor interaction with chemokines was a modification of the binding assay described by Ernst et al., J. Immunol. 152:3541-3549 (1994). MIP-1β as labeled using the Bolton and Hunter reagent (di-iodide, NEN, Wilmington, Del.), according to the manufacturer's instructions. Unconjugated iodide was separated from labeled protein by elution using a PD-10 column (Pharmacia) equilibrated with PBS and BSA (1% w/v). The specific activity was typically 2200 Ci/mmole. Equilibrium binding was performed by adding ¹²⁵I-labeled ligand with or without a 100-fold excess of unlabeled ligand, to 5×10⁵ HEK-293 cells transfected with 88C tagged with the FLAG epitope in polypropylene tubes in a total volume of 300 μl (50 mM HEPES pH 7.4, 1 mM CaCl₂, MgCl₂, 0.5% BSA) and incubating for 90 minutes at 27° C. with shaking at 150 rpm. The cells were collected, using a Skatron cell harvester (Skatron Instruments Inc., Sterling, Va.), on glass fiber filters presoaked in 0.3% polyethyleneimine and 0.2% BSA. After washing, the filters were removed and bound ligand was quantitated by counting gamma emissions. Ligand binding by competition with unlabeled ligand was determined by incubation of 5×10⁵ transfected cells (as above) with 1.5 nM of radiolabeled ligand and the indicated concentrations of unlabeled ligand. The samples were collected, washed and counted as above. The data was analyzed using the curve-fitting program Prism (GraphPad Inc., San Diego, Calif.) and the iterative non-linear regression program, LIGAND (PM220).
In equilibrium binding assays, 88C receptor bound radiolabeled MIP-1β in a specific and saturable manner.

[3] = molecular target: T1, FLAG-tagged 88C receptor; experiment: equilibrium binding of 125I-MIP-1β to HEK-293 cells expressing FLAG-tagged 88C, Scatchard analysis
Excerpt: as §1, with “The cells were collected, using a Skatron cell harvester (Skatron Instruments Inc., Sterling, Va.), on glass fiber filters presoaked in 0.3% polyethyleneimine and 0.2% BSA.” left out, “(PM220). […]” for “(PM220).”

EC50 of inositol phosphate formation (dose-response curves) [1] [nM] | IC50 [2] [nM] | Kd [3] [nM] | Binder
22 | 7.4 | – | MIP-1α (ligand, UniProt P10147 24-92, looked up) SLAADTPTACCFSYTSRQIPQNFIADYFETSSQCSKPGVIFLTKRSRQVCADPSEEWVQKYVSDLELSA
1 | 6.9 | – | RANTES (Regulated on Activation, Normal T Expressed and Secreted) (ligand, UniProt P13501 24-91, looked up) SPYSSDTTPCCFAYIARPLPRAHIKEYFYTSGKCSNPAVVFVTRKNRQVCANPEKKWVREYINSLEMS
6 | 7.4 | 1.6 | MIP-1β (ligand, UniProt P13236 24-92, looked up, ends and bridges not checked; also: 125I label (Bolton and Hunter reagent) where used as radiolabeled ligand) APMGSDPPTACCFSYTARKLPRNFVVDYYETSSLCSQPAVVFQTKRSKQVCADPSESWVQEYVYDLELN
